Data reported in patent US20190218283A1 (published 2019).

Target: murine pro-myostatin (proGDF8) (mouse, UniProt O08689 25-376)
Assay: cell-based or functional assay

- Activity Assay - 293T cells EC50: 0.307 nM
B1: Ab6 (Ab5 IgG4 containing the corrected germline residues) (antibody, V domains shown)
VH: QVQLVESGGGVVQPGRSLRLSCAASGFAFSSYGMHWVRQAPGKGLEWVAVISYDGNNKYYADSVKGRFTISRDNSKNTLYLQMNSLRAEDTAVYYCARDLLVRFLEWSHKYGMDVWGQGTTVTVSS
VL: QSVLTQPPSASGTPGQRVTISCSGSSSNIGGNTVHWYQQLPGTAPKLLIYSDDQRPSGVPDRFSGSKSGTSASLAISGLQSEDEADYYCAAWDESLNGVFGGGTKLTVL
